Data from the supplement of paper PMC6757056.
± gives the standard deviation of the averaged measurements.

B1: library; a variant is named by its letters at N, in order (parent)
chain: GCUGUCACCGGUGUAUUACCCUAGUGGUCGACCGGUCUGAUGAGUCUNNNNNNAGACGAAACAGC

Key:
hypoxanthine [1] = variants of: B1; test: normalized RNA/DNA level with ligand (relative to sTRSVctl = 100) (log10 (% of sTRSVctl)); ligand: hypoxanthine (xanthine aptamer); higher = less ribozyme self-cleavage, higher mRNA level; settings: ligand concentration (+) RNA-Seq: 5 mM, HEK293T, reporter: mCherry (pCS4076), ligand present: yes
Method in brief: (§1)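 Library plasmids encoding reporter-linked ribozyme switches (mCherry, or eGFP for some folinic acid experiments) were transfected into HEK293T at 4 µg per 6-well well. Ligand, when used, was added 1 h before transfection. Total RNA was extracted with EDTA 72 h later, then reverse-transcribed, amplified, barcoded and sequenced. RNA level was RNA reads over DNA reads, divided by a spiked-in non-cleaving control (or the top 25 sequences), ×100, log10; only sequences with ≥100 DNA reads were kept.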

hypoxanthine [2] = variants of: B1; test: normalized RNA/DNA level without ligand (relative to sTRSVctl = 100) (log10 (% of sTRSVctl)); ligand: hypoxanthine (xanthine aptamer); higher = less ribozyme self-cleavage, higher mRNA level; settings: HEK293T, reporter: mCherry (pCS4076), ligand present: no
Method in brief: as §1

hypoxanthine [3] = variants of: B1; test: FACS-Seq fitted mean relative fluorescence mCherry/BFP without ligand (log10 relative fluorescence); ligand: hypoxanthine (xanthine aptamer); higher = higher reporter protein expression; settings: HEK293T, ligand present: no
Method in brief: (§2)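 Lentivirally transduced HEK293T libraries carried an mCherry reporter with the ribozyme switch and an EF1α-BFP marker. Transduced cells were enriched, then incubated with or without ligand for 48 h and sorted into 6 bins by mCherry/BFP. Genomic DNA from each bin was PCR-amplified, barcoded and sequenced on MiSeq. Fluorescence was the fitted normal mean of log10(mCherry/BFP) bin counts, scaled to five spiked-in control ribozymes.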

hypoxanthine [4] = variants of: B1; test: FACS-Seq fitted mean relative fluorescence mCherry/BFP with ligand (log10 relative fluorescence); ligand: hypoxanthine (xanthine aptamer); ligand concentration (+) FACS-Seq: 5 mM; higher = higher reporter protein expression; settings: HEK293T, ligand present: yes
Method in brief: as §2

| Variant | normalized RNA/DNA level with ligand (log10) (hypoxanthine [1]) | normalized RNA/DNA level without ligand (log10) (hypoxanthine [2]) | FACS-Seq fitted mean (log10) (hypoxanthine [3]) | FACS-Seq fitted mean (log10) (hypoxanthine [4]) |
| --- | --- | --- | --- | --- |
| CAAAAU | 1.88 ± 0.035 | 1.763 ± 0.0036 | – | – |
| GUUACU | 1.946 ± 0.0064 | 1.89 ± 0.06 | 0.523 ± 0.11 | 0.466 ± 0.036 |
| GUUACG | 1.88 ± 0.03 | 1.59 ± 0.027 | 0.564 ± 0.075 | 0.566 ± 0.043 |
| CUUCAC | 1.98 ± 0.022 | 1.89 ± 0.038 | 0.798 ± 0.0035 | 0.7261 ± 0.0054 |
| GUUUCC | 1.95 ± 0.089 | 2.03 ± 0.06 | 0.703 ± 0.042 | 0.641 ± 0.02 |
| AUUCCG | 1.93 ± 0.021 | 1.589 ± 0.013 | 0.126 ± 0.023 | 0.296 ± 0.031 |
| AUUCCU | 1.922 ± 0.0034 | 1.89 ± 0.064 | 0.507 ± 0.036 | 0.567 ± 0.011 |
| CUUUCA | 1.918 ± 0.0052 | 1.89 ± 0.041 | 0.608 ± 0.077 | 0.565 ± 0.017 |
| UUUGUG | 1.954 ± 0.015 | 1.76 ± 0.031 | 0.449 ± 0.0072 | 0.537 ± 0.024 |
| UUUGAG | 1.88 ± 0.027 | 1.54 ± 0.021 | 0.198 ± 0.18 | 0.502 ± 0.067 |
| UUUGAA | 1.9 ± 0.041 | 1.75 ± 0.036 | 0.522 ± 0.076 | 0.351 ± 0.04 |
| GUUAGA | 1.905 ± 0.0029 | 1.694 ± 0.0036 | 0.572 ± 0.13 | 0.619 ± 0.075 |
| GUUAGG | 1.8 ± 0.045 | 1.38 ± 0.033 | 0.451 ± 0.026 | 0.648 ± 0.03 |
| GUUUAA | 1.917 ± 0.0057 | 1.83 ± 0.03 | 0.00874 ± 0.0085 | 0.204 ± 0.078 |
| GUUUAG | 1.81 ± 0.023 | 1.464 ± 0.013 | 0.256 ± 0.013 | 0.65 ± 0.013 |
| AUUCUC | 2.01 ± 0.033 | 1.96 ± 0.044 | 0.8249 ± 0.0011 | 0.724 ± 0.063 |
| GUUGGG | 1.89 ± 0.025 | 1.52 ± 0.029 | 0.375 ± 0.11 | 0.635 ± 0.028 |
| AUUUUU | 1.93 ± 0.054 | 1.88 ± 0.032 | 0.433 ± 0.019 | 0.378 ± 0.044 |
| AUUUUG | 1.933 ± 0.0027 | 1.59 ± 0.083 | 0.224 ± 0.041 | 0.466 ± 0.012 |
| CUUCGA | 2.01 ± 0.04 | 1.876 ± 0.012 | -0.0248 ± 0.11 | 0.346 ± 0.059 |
| AUUAUU | 1.91 ± 0.0029 | 1.881 ± 0.011 | 0.5583 ± 0.0011 | 0.668 ± 0.014 |
| AUUAUA | 1.928 ± 0.019 | 1.81 ± 0.028 | 0.24 ± 0.022 | 0.402 ± 0.063 |
| UUUUAU | 1.96 ± 0.018 | 1.85 ± 0.06 | 0.589 ± 0.097 | 0.296 ± 0.011 |
| CUUGCU | 2 ± 0.018 | 1.94 ± 0.097 | 0.359 ± 0.037 | 0.458 ± 0.056 |
| CUUGCA | 2.01 ± 0.023 | 1.87 ± 0.041 | 0.834 ± 0.021 | 0.882 ± 0.079 |

| Variant | normalized RNA/DNA level with ligand (log10) (hypoxanthine [1]) | normalized RNA/DNA level without ligand (log10) (hypoxanthine [2]) | FACS-Seq fitted mean (log10) (hypoxanthine [3]) | FACS-Seq fitted mean (log10) (hypoxanthine [4]) |
| --- | --- | --- | --- | --- |
| GUUGUG | 1.83 ± 0.042 | 1.39 ± 0.028 | 0.225 ± 0.066 | 0.406 ± 0.14 |
| GUUGUU | 1.969 ± 0.0045 | 1.9 ± 0.029 | 0.56 ± 0.026 | 0.67542 ± 0.00062 |
| GUUGUA | 1.9 ± 0.025 | 1.84 ± 0.032 | 0.455 ± 0.0078 | 0.632 ± 0.012 |
| AUUAGG | 1.81 ± 0.045 | 1.31 ± 0.021 | 0.0666 ± 0.043 | 0.477 ± 0.051 |
| AUUAGC | 1.92 ± 0.037 | 1.77 ± 0.029 | 0.269 ± 0.031 | 0.487 ± 0.023 |
| AUUAGA | 1.895 ± 0.013 | 1.71 ± 0.028 | 0.629 ± 0.042 | 0.69 ± 0.04 |
| CUUCCC | 1.9 ± 0.021 | 1.9406 ± 0.0018 | -0.199 ± 0.041 | 0.0439 ± 0.038 |
| UUUUCC | 1.94 ± 0.03 | 1.935 ± 0.013 | -0.155 ± 0.032 | 0.362 ± 0.077 |
| CUUGGA | 1.95 ± 0.032 | 1.85 ± 0.02 | 0.708 ± 0.039 | 0.705 ± 0.086 |
| GUUCAA | 1.89 ± 0.075 | 1.79 ± 0.042 | 0.0385 ± 0.025 | 0.294 ± 0.0042 |
| CAAACA | 1.93 ± 0.061 | 1.75 ± 0.039 | – | – |
| CUUUUA | 1.92 ± 0.051 | 1.77 ± 0.043 | 0.647 ± 0.044 | 0.318 ± 0.12 |
| GUUCGU | 1.98 ± 0.087 | 1.887 ± 0.01 | 0.476 ± 0.02 | 0.538 ± 0.014 |
| UAAAAG | 1.87 ± 0.025 | 1.627 ± 0.011 | – | – |
| AUUCAU | 1.93 ± 0.049 | 1.8 ± 0.064 | 0.124 ± 0.035 | 0.262 ± 0.046 |
| AUUGUG | 1.8 ± 0.023 | 1.39 ± 0.034 | 0.0887 ± 0.00064 | 0.469 ± 0.1 |
| GUUGAG | 1.81 ± 0.019 | 1.34 ± 0.038 | 0.255 ± 0.018 | 0.659 ± 0.082 |
| GUUGAU | 1.936 ± 0.015 | 1.79 ± 0.021 | 0.224 ± 0.074 | 0.303 ± 0.031 |
| AAAAAC | 1.894 ± 0.015 | 1.8 ± 0.021 | – | – |
| AUUCGG | 1.87 ± 0.021 | 1.46 ± 0.024 | 0.175 ± 0.028 | 0.625 ± 0.014 |
| GUUUUG | 1.9 ± 0.084 | 1.567 ± 0.002 | 0.498 ± 0.038 | 0.551 ± 0.047 |
| GUUUUC | 1.92 ± 0.025 | 1.952 ± 0.01 | -0.0599 ± 0.0079 | -0.0383 ± 0.14 |
| GUUUUU | 1.941 ± 0.0034 | 1.93 ± 0.05 | 0.142 ± 0.041 | 0.1 ± 0.015 |
| GUUUGG | 1.92 ± 0.03 | 1.57 ± 0.06 | 0.231 ± 0.049 | 0.62263 ± 0.00024 |
| UUUUGA | 1.98 ± 0.031 | 1.63 ± 0.023 | 0.455 ± 0.043 | 0.5 ± 0.019 |

| Variant | normalized RNA/DNA level with ligand (log10) (hypoxanthine [1]) | normalized RNA/DNA level without ligand (log10) (hypoxanthine [2]) | FACS-Seq fitted mean (log10) (hypoxanthine [3]) | FACS-Seq fitted mean (log10) (hypoxanthine [4]) |
| --- | --- | --- | --- | --- |
| UUUAUA | 1.93 ± 0.024 | 1.849 ± 0.0039 | -0.64 ± 0.014 | -0.329 ± 0.11 |
| UUUAUU | 1.9334 ± 0.00045 | 1.86 ± 0.047 | 0.761 ± 0.032 | 0.799 ± 0.067 |
| UUUAGG | 1.9004 ± 0.0014 | 1.83 ± 0.0068 | 0.0978 ± 0.0074 | 0.462 ± 0.026 |
| UUUAGC | 1.95 ± 0.061 | 1.88 ± 0.037 | 0.28 ± 0.015 | 0.555 ± 0.04 |
| UUUAGU | 1.93 ± 0.043 | 1.83 ± 0.064 | 0.632 ± 0.16 | 0.638 ± 0.11 |
| AUUGGG | 1.87 ± 0.085 | 1.36 ± 0.03 | 0.0996 ± 0.0053 | 0.592 ± 0.018 |
| AUUGGU | 1.89 ± 0.048 | 1.66 ± 0.084 | 0.357 ± 0.04 | 0.601 ± 0.029 |
| AUUGGA | 1.944 ± 0.0073 | 1.647 ± 0.013 | 0.196 ± 0.12 | 0.374 ± 0.042 |
| CUUUAG | 2.02 ± 0.036 | 1.808 ± 0.017 | 0.52 ± 0.017 | 0.386 ± 0.085 |
| CUUUAU | 1.88 ± 0.098 | 1.78 ± 0.028 | 0.0718 ± 0.034 | 0.344 ± 0.07 |
| AUUUAA | 1.901 ± 0.019 | 1.81 ± 0.051 | 0.629 ± 0.027 | 0.649 ± 0.015 |
| GUUGCA | 1.918 ± 0.017 | 1.81 ± 0.021 | 0.818 ± 0.056 | 0.698 ± 0.011 |
| AUUGCG | 1.857 ± 0.015 | 1.41 ± 0.065 | -0.0459 ± 0.021 | 0.458 ± 0.028 |
| CUUGAU | 1.94 ± 0.031 | 1.74 ± 0.011 | -0.553 ± 0.022 | -0.303 ± 0.012 |
| CUUGAA | 1.95 ± 0.041 | 1.706 ± 0.015 | 0.0914 ± 0.0068 | 0.182 ± 0.0048 |
| GUUAUG | 1.87 ± 0.039 | 1.46 ± 0.015 | 0.223 ± 0.011 | 0.509 ± 0.01 |
| CUUAUA | 1.92 ± 0.037 | 1.792 ± 0.014 | 0.669 ± 0.043 | 0.696 ± 0.063 |
| AUUGAG | 1.82 ± 0.062 | 1.37 ± 0.029 | 0.25 ± 0.005 | 0.476 ± 0.0067 |
| AUUGAC | 1.914 ± 0.01 | 1.816 ± 0.0025 | 0.697 ± 0.08 | 0.672 ± 0.11 |
| AUUGAU | 1.92 ± 0.07 | 1.73 ± 0.074 | 0.686 ± 0.037 | 0.657 ± 0.014 |
| AUUUGA | 1.91 ± 0.033 | 1.6633 ± 0.00044 | 0.636 ± 0.085 | 0.602 ± 0.16 |
| AUUUGU | 1.923 ± 0.01 | 1.638 ± 0.013 | 0.6123 ± 2.1e-06 | 0.723 ± 0.041 |
| AUUUGC | 1.91 ± 0.043 | 1.783 ± 0.0061 | 0.485 ± 0.047 | 0.704 ± 0.052 |
